Blank lines part the entries; values can stand above or below the molecule they belong to.
Key:
[1] = biological target: T1, human PSP (phosphoserine phosphatase) (Homo sapiens, UniProt P78330); settings: 40 µM L-OPS, 15.7 nM PSP, 3 mM MgCl2, pH 7, 37 °C; product inhibition
T1 construct: gene PSPH
T1 sequence (P78330 1-225): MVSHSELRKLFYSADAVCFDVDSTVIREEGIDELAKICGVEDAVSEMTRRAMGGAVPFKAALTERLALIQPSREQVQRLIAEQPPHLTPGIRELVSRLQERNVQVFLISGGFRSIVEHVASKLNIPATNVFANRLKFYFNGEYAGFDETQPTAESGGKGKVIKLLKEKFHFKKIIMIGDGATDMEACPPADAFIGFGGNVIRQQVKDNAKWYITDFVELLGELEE

[2] = substrate: N[C@@H](COP(=O)(O)O)C(=O)O; experiment: purified protein; format: biochemical, Homo sapiens; settings: 50 mM HEPES, 100 mM KCl, 3 mM MgCl2, pH 7, 37 °C, 170 µM acetyl-CoA, 0.5 mM DTNB, 430 mU HiSAT removing product L-serine

- % inhibition at 50 mM [1]: 50%
Molecule: O=P(O)(O)O [phosphate]

B1: human PSP (phosphoserine phosphatase) (Homo sapiens) (protein)
chain: T1 sequence (P78330 1-225)
notes: dimer
- Km [2]: 40.3 ± 2.8 µM
- kcat [2]: 44.8 ± 0.9 s⁻¹
- kcat/Km [2]: 1.11e+06 ± 100000 M⁻¹ s⁻¹
